Results published in paper PMC10170197 (Open Biology, 2023).

B1: Caprin-1^356–386 peptide (peptide)
peptide: RQRVQDLMAQMQGPYNFIQDSMLDFENQTLD
notes: Used for co-crystallisation and as peptide ligand in nanoDSF; also called Caprin-1-derived SLiM; source: synthetic peptide
B2: Caprin-1, endogenous in U2OS ΔΔG3BP1/2 cells (natural protein, human (endogenous in U2OS), UniProt Q14444 1-709, looked up)
chain: MPSATSHSGSGSKSSGPPPPSGSSGSEAAAGAGAAAPASQHPATGTGAVQTEAMKQILGVIDKKLRNLEKKKGKLDDYQERMNKGERLNQDQLDAVSKYQEVTNNLEFAKELQRSFMALSQDIQKTIKKTARREQLMREEAEQKRLKTVLELQYVLDKLGDDEVRTDLKQGLNGVPILSEEELSLLDEFYKLVDPERDMSLRLNEQYEHASIHLWDLLEGKEKPVCGTTYKVLKEIVERVFQSNYFDSTHNHQNGLCEEEEAASAPAVEDQVPEAEPEPAEEYTEQSEVESTEYVNRQFMAETQFTSGEKEQVDEWTVETVEVVNSLQQQPQAASPSVPEPHSLTPVAQADPLVRRQRVQDLMAQMQGPYNFIQDSMLDFENQTLDPAIVSAQPMNPTQNMDMPQLVCPPVHSESRLAQPNQVPVQPEATQVPLVSSTSEGYTASQPLYQPSHATEQRPQKEPIDQIQATISLNTDQTTASSSLPAASQPQVFQAGTSKPLHSSGINVNAAPFQSMQTVFNMNAPVPPVNEPETLKQQNQYQASYNQSFSSQPHQVEQTELQQEQLQTVVGTYHGSPDQSHQVTGNHQQPPQQNTGFPRSNQPYYNSRGVSRGGSRGARGLMNGYRGPANGFRGGYDGYRPSFSNTPNSGYTQSQFSAPRDYSGYQRDGYQQNFKRGSGQSGPRGAPRGRGGPPRPNRGMPQMNTQQVN
notes: Caprin-1, endogenous protein detected by Western blot; source: endogenous, U2OS ΔΔG3BP1/2 lysate

Tests used:
[1] = molecular target: T1, G3BP1-NTF2 (residues 1–139) (UniProt Q13283 1-139); assay: nanoDSF (thermal shift); G3BP1-NTF2 with 10 x molar excess of peptide, 4% DMSO; neutral pH (7.4); buffers as for ITC; details: both partners purified
T1 construct: G3BP1, NTF2-like domain, residues 1–139; Purified as a dimer; also called G3BP1-NTF2-WT; NTF2-WT; source: E. coli, purified (IMAC, Superdex 75 SEC, TEV cleavage, IMAC flow-through, SEC)

[2] = molecular target: T1, G3BP1-NTF2 (residues 1–139); assay: nanoDSF (thermal shift); G3BP1-NTF2 with 10 x molar excess of peptide, 4% DMSO; 25 mM MES pH 6.1, 150 mM NaCl, 10 mM MgCl2, 10% glycerol; details: both partners purified
[3] = molecular target: T2, NTF2-H31YH62Y (UniProt Q13283 1-139, H31Y | H62Y); assay: as above; details: both partners purified
T2 construct: G3BP1 NTF2-like domain (limits as the G3BP1-NTF2 construct, residues 1–139) with H31Y and H62Y; also called G3BP1-NTF2-H31YH62Y

[4] = molecular target: T1, G3BP1-NTF2 (residues 1–139); assay: nanoDSF (thermal shift); G3BP1-NTF2 with 10 x molar excess of peptide, 4% DMSO; 25 mM Na-acetate pH 5.1, 150 mM NaCl, 10 mM MgCl2, 10% glycerol; details: both partners purified
[5] = molecular target: T3, GFP-G3BP1-H31YH62Y (UniProt Q13283 1-466, H31Y | H62Y); assay: co-IP; GFP-Trap/anti-GFP beads from lysates of U2OS ΔΔG3BP1/2 cells stably expressing GFP-G3BP1-WT or mutants; EE lysis buffer; Western blot for Caprin-1 and USP10; details: partners not purified
T3 construct: G3BP1, full length, fused to GFP; source: U2OS ΔΔG3BP1/2 cells, stably transfected, in lysate
T3 sequence (Q13283 whole entry H31Y/H62Y, the tested form may be a part): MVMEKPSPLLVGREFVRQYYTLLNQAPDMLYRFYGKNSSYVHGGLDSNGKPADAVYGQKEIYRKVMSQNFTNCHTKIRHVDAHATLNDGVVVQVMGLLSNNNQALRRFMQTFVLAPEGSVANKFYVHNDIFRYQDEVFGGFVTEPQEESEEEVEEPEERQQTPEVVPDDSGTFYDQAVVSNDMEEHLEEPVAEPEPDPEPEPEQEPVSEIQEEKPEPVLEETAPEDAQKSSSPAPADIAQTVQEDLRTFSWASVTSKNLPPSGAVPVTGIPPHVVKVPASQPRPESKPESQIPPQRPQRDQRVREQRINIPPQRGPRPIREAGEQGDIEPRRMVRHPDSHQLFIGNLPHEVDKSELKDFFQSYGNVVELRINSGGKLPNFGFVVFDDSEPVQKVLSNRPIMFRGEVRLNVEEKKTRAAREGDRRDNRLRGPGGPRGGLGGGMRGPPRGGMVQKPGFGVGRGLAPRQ

T1 sequence (Q13283 1-139): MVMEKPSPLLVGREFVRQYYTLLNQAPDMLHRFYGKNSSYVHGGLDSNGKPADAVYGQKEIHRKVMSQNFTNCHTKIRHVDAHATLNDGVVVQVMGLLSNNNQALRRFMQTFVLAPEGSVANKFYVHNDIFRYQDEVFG
T2 sequence (Q13283 1-139 H31Y/H62Y): as the sequence (Q13283 1-139) above, with H31Y, H62Y counted along it

Binder | ΔTm (ligand-binding-induced stabilization of NTF2) [1] [°C] | ΔTm (ligand-binding-induced stabilization of NTF2) [2] [°C] | binding result [3] | ΔTm (ligand-binding-induced stabilization of NTF2) [4] [°C] | reduction of co-precipitated Caprin-1 relative to wild-type G3BP1 [5] [%]
B1 | 3 | 2.5 | binds | 5.5 | –
B2 | – | – | – | – | ~50
